{"source": "FireProtDB (doi:10.1021/bi9901228)", "parents": {"B1": {"name": "Lysozyme C, P61626 (parent)", "chain": "MKALIVLGLVLLSVTVQGKVFERCELARTLKRLGMDGYRGISLANWMCLAKWESGYNTRATNYNAGDRSTDYGIFQINSRYWCNDGKTPGAVNACHLSCSALLQDNIADAVACAKRVVRDPQGIRAWVAWRNRCQNRDVRQYVQGCGV"}}}
{"variants_of": "B1", "settings": "Homo sapiens; pH 2.47; Thermal; DSC; glycine 0.05 M; reversible: yes; structure 1LZ1; whole UniProt chain shown", "units": {"Tm": "°C", "heat capacity change of unfolding": "kcal/mol/K", "unfolding enthalpy (calorimetric)": "kcal/mol", "unfolding enthalpy (van 't Hoff)": "kcal/mol"}}
{"variant": "MKALIVLGLVLLSVTVQGKVFERCELARTLKRLGMDGYRGISLANWMCLAKWEAGYNTRATNYNAGDRSTDYGIFQINSRYWCNDGKTPGAVNACHLSCSALLQDNIADAVACAKRVVRDPQGIRAWVAWRNRCQNRDVRQYVQGCGV", "note": "[S54A]", "Tm": 57.1, "heat capacity change of unfolding": 1.31, "unfolding enthalpy (calorimetric)": 98.5, "unfolding enthalpy (van 't Hoff)": 103}
{"variants_of": "B1", "settings": "Homo sapiens; pH 2.67; Thermal; DSC; glycine 0.05 M; reversible: yes; structure 1LZ1; whole UniProt chain shown", "units": {"Tm": "°C", "heat capacity change of unfolding": "kcal/mol/K", "unfolding enthalpy (calorimetric)": "kcal/mol", "unfolding enthalpy (van 't Hoff)": "kcal/mol"}}
{"variant": "MKALIVLGLVLLSVTVQGKVFERCELARTLKRLGMDGYRGISLANWMCLAKWEAGYNTRATNYNAGDRSTDYGIFQINSRYWCNDGKTPGAVNACHLSCSALLQDNIADAVACAKRVVRDPQGIRAWVAWRNRCQNRDVRQYVQGCGV", "note": "[S54A]", "Tm": 60.8, "heat capacity change of unfolding": 1.31, "unfolding enthalpy (calorimetric)": 104, "unfolding enthalpy (van 't Hoff)": 109}
{"variants_of": "B1", "settings": "Homo sapiens; pH 2.7; Thermal; DSC; glycine 0.05 M; reversible: yes; structure 1LZ1; whole UniProt chain shown", "units": {"Tm": "°C", "change of melting temperature, mutant - wild type (higher = more stable)": "°C", "heat capacity change of unfolding": "kcal/mol/K", "unfolding enthalpy (calorimetric)": "kcal/mol"}}
{"variant": "MKALIVLGLVLLSVTVQGKVFERCELARTLKRLGMDGYRGISLANWMCLAKWEAGYNTRATNYNAGDRSTDYGIFQINSRYWCNDGKTPGAVNACHLSCSALLQDNIADAVACAKRVVRDPQGIRAWVAWRNRCQNRDVRQYVQGCGV", "note": "[S54A]", "Tm": 61.4, "change of melting temperature, mutant - wild type (higher = more stable)": -3.5, "heat capacity change of unfolding": 1.31, "unfolding enthalpy (calorimetric)": 109}
{"variant": "MKALIVLGLVLLSVTVQGKVFERCELARTLKRLGMDGYRGISLANWMCLAKWESGYNTRATNYNAGDRSTDYGIFQINARYWCNDGKTPGAVNACHLSCSALLQDNIADAVACAKRVVRDPQGIRAWVAWRNRCQNRDVRQYVQGCGV", "note": "[S79A]", "Tm": 60.6, "change of melting temperature, mutant - wild type (higher = more stable)": -4.3, "heat capacity change of unfolding": 1.27, "unfolding enthalpy (calorimetric)": 109}
{"variant": "MKALIVLGLVLLSVTVQGKVFERCELARTLKRLGMDGYRGISLANWMCLAKWESGYNTRATNYNAGDRSTDYGIFQINSRYWCNDGKTPGAVNACHLACSALLQDNIADAVACAKRVVRDPQGIRAWVAWRNRCQNRDVRQYVQGCGV", "note": "[S98A]", "Tm": 66.3, "change of melting temperature, mutant - wild type (higher = more stable)": 1.4, "heat capacity change of unfolding": 1.43, "unfolding enthalpy (calorimetric)": 116}
{"variants_of": "B1", "settings": "Homo sapiens; pH 2.84; Thermal; DSC; glycine 0.05 M; reversible: yes; structure 1LZ1; whole UniProt chain shown", "units": {"Tm": "°C", "heat capacity change of unfolding": "kcal/mol/K", "unfolding enthalpy (calorimetric)": "kcal/mol", "unfolding enthalpy (van 't Hoff)": "kcal/mol"}}
{"variant": "MKALIVLGLVLLSVTVQGKVFERCELARTLKRLGMDGYRGISLANWMCLAKWEAGYNTRATNYNAGDRSTDYGIFQINSRYWCNDGKTPGAVNACHLSCSALLQDNIADAVACAKRVVRDPQGIRAWVAWRNRCQNRDVRQYVQGCGV", "note": "[S54A]", "Tm": 64, "heat capacity change of unfolding": 1.24, "unfolding enthalpy (calorimetric)": 107, "unfolding enthalpy (van 't Hoff)": 113}
{"variant": "MKALIVLGLVLLSVTVQGKVFERCELARTLKRLGMDGYRGISLANWMCLAKWESGYNTRATNYNAGDRSTDYGIFQINARYWCNDGKTPGAVNACHLSCSALLQDNIADAVACAKRVVRDPQGIRAWVAWRNRCQNRDVRQYVQGCGV", "note": "[S79A]", "Tm": 63.6, "heat capacity change of unfolding": 1.15, "unfolding enthalpy (calorimetric)": 107, "unfolding enthalpy (van 't Hoff)": 111}
{"variants_of": "B1", "settings": "Homo sapiens; pH 3.09; Thermal; DSC; glycine 0.05 M; reversible: yes; structure 1LZ1; whole UniProt chain shown", "units": {"Tm": "°C", "heat capacity change of unfolding": "kcal/mol/K", "unfolding enthalpy (calorimetric)": "kcal/mol", "unfolding enthalpy (van 't Hoff)": "kcal/mol"}}
{"variant": "MKALIVLGLVLLSVTVQGKVFERCELARTLKRLGMDGYRGISLANWMCLAKWEAGYNTRATNYNAGDRSTDYGIFQINSRYWCNDGKTPGAVNACHLSCSALLQDNIADAVACAKRVVRDPQGIRAWVAWRNRCQNRDVRQYVQGCGV", "note": "[S54A]", "Tm": 68.7, "heat capacity change of unfolding": 1.22, "unfolding enthalpy (calorimetric)": 114, "unfolding enthalpy (van 't Hoff)": 119}
{"variants_of": "B1", "settings": "Homo sapiens; pH 2.51; Thermal; DSC; glycine 0.05 M; reversible: yes; structure 1LZ1; whole UniProt chain shown", "units": {"Tm": "°C", "heat capacity change of unfolding": "kcal/mol/K", "unfolding enthalpy (calorimetric)": "kcal/mol", "unfolding enthalpy (van 't Hoff)": "kcal/mol"}}
{"variant": "MKALIVLGLVLLSVTVQGKVFERCELARTLKRLGMDGYRGISLANWMCLAKWESGYNTRATNYNAGDRSTDYGIFQINARYWCNDGKTPGAVNACHLSCSALLQDNIADAVACAKRVVRDPQGIRAWVAWRNRCQNRDVRQYVQGCGV", "note": "[S79A]", "Tm": 57, "heat capacity change of unfolding": 1.1, "unfolding enthalpy (calorimetric)": 99, "unfolding enthalpy (van 't Hoff)": 103}
{"variants_of": "B1", "settings": "Homo sapiens; pH 3.1; Thermal; DSC; glycine 0.05 M; reversible: yes; structure 1LZ1; whole UniProt chain shown", "units": {"Tm": "°C", "heat capacity change of unfolding": "kcal/mol/K", "unfolding enthalpy (calorimetric)": "kcal/mol", "unfolding enthalpy (van 't Hoff)": "kcal/mol"}}
{"variant": "MKALIVLGLVLLSVTVQGKVFERCELARTLKRLGMDGYRGISLANWMCLAKWESGYNTRATNYNAGDRSTDYGIFQINARYWCNDGKTPGAVNACHLSCSALLQDNIADAVACAKRVVRDPQGIRAWVAWRNRCQNRDVRQYVQGCGV", "note": "[S79A]", "Tm": 68.3, "heat capacity change of unfolding": 1.31, "unfolding enthalpy (calorimetric)": 113, "unfolding enthalpy (van 't Hoff)": 118}
{"variants_of": "B1", "settings": "Homo sapiens; pH 2.5; Thermal; DSC; glycine 0.05 M; reversible: yes; structure 1LZ1; whole UniProt chain shown", "units": {"Tm": "°C", "heat capacity change of unfolding": "kcal/mol/K", "unfolding enthalpy (calorimetric)": "kcal/mol", "unfolding enthalpy (van 't Hoff)": "kcal/mol"}}
{"variant": "MKALIVLGLVLLSVTVQGKVFERCELARTLKRLGMDGYRGISLANWMCLAKWESGYNTRATNYNAGDRSTDYGIFQINSRYWCNDGKTPGAVNACHLACSALLQDNIADAVACAKRVVRDPQGIRAWVAWRNRCQNRDVRQYVQGCGV", "note": "[S98A]", "Tm": 62.7, "heat capacity change of unfolding": 1.41, "unfolding enthalpy (calorimetric)": 113, "unfolding enthalpy (van 't Hoff)": 120}
{"variants_of": "B1", "settings": "Homo sapiens; pH 2.69; Thermal; DSC; glycine 0.05 M; reversible: yes; structure 1LZ1; whole UniProt chain shown", "units": {"Tm": "°C", "heat capacity change of unfolding": "kcal/mol/K", "unfolding enthalpy (calorimetric)": "kcal/mol", "unfolding enthalpy (van 't Hoff)": "kcal/mol"}}
{"variant": "MKALIVLGLVLLSVTVQGKVFERCELARTLKRLGMDGYRGISLANWMCLAKWESGYNTRATNYNAGDRSTDYGIFQINSRYWCNDGKTPGAVNACHLACSALLQDNIADAVACAKRVVRDPQGIRAWVAWRNRCQNRDVRQYVQGCGV", "note": "[S98A]", "Tm": 66.2, "heat capacity change of unfolding": 1.34, "unfolding enthalpy (calorimetric)": 119, "unfolding enthalpy (van 't Hoff)": 126}
{"variants_of": "B1", "settings": "Homo sapiens; pH 2.85; Thermal; DSC; glycine 0.05 M; reversible: yes; structure 1LZ1; whole UniProt chain shown", "units": {"Tm": "°C", "heat capacity change of unfolding": "kcal/mol/K", "unfolding enthalpy (calorimetric)": "kcal/mol", "unfolding enthalpy (van 't Hoff)": "kcal/mol"}}
{"variant": "MKALIVLGLVLLSVTVQGKVFERCELARTLKRLGMDGYRGISLANWMCLAKWESGYNTRATNYNAGDRSTDYGIFQINSRYWCNDGKTPGAVNACHLACSALLQDNIADAVACAKRVVRDPQGIRAWVAWRNRCQNRDVRQYVQGCGV", "note": "[S98A]", "Tm": 69.1, "heat capacity change of unfolding": 1.34, "unfolding enthalpy (calorimetric)": 122, "unfolding enthalpy (van 't Hoff)": 129}
{"variants_of": "B1", "settings": "Homo sapiens; pH 3.11; Thermal; DSC; glycine 0.05 M; reversible: yes; structure 1LZ1; whole UniProt chain shown", "units": {"Tm": "°C", "heat capacity change of unfolding": "kcal/mol/K", "unfolding enthalpy (calorimetric)": "kcal/mol", "unfolding enthalpy (van 't Hoff)": "kcal/mol"}}
{"variant": "MKALIVLGLVLLSVTVQGKVFERCELARTLKRLGMDGYRGISLANWMCLAKWESGYNTRATNYNAGDRSTDYGIFQINSRYWCNDGKTPGAVNACHLACSALLQDNIADAVACAKRVVRDPQGIRAWVAWRNRCQNRDVRQYVQGCGV", "note": "[S98A]", "Tm": 73.6, "heat capacity change of unfolding": 1.39, "unfolding enthalpy (calorimetric)": 129, "unfolding enthalpy (van 't Hoff)": 135}
